# Test results from the RNAGym collection of RNA variant scans (doi:10.1021/acssynbio.7b00057).
# B1: Pistol ribozyme (parent)
# chain: GGGUCGUUGUUCCAUAAUCGCGUGGAUAUGGCACGCAAGUUUCUACCGGGCACCGUAAAUGUCCGACUGGAGCCGUUCGGGCGGCUAUAAACAGACCUCAGGCCCGAAGCGUGGCGGCACCUGCCGCCGGUGGUAAAAAAGAUCGGAAGAGCACACGUCU
# Variants of: B1
# Assay: aptazyme ON/OFF ratio, guanine; higher = stronger switching; co-transcriptional cleavage with and without guanine
row,Variant,aptazyme ON/OFF ratio
1,U7G U8G G9U C12G C13U,1.27
2,U7G U8G G9U C12G C13A,1.3
3,U7G U8G G9U C12G C13G,1.31
4,U7G U8G G9C U11G C13U,1.49
5,U7G U8G G9C U11G C13G,1.16
6,U7G U8G G9C U11G C13A,1.3
7,U7G U8G G9C U10A U11A C12U,1.07
8,U7G U8G G9C U10A U11A C12G,1.07
9,U7G U8G G9C U10A U11A C12A,1.07
10,U7G U8G G9C U11G C12G C13U,1.18
11,U7G U8G G9C U11G C12G C13A,1.17
12,U7G U8G G9C U11G C12G C13G,1.24
13,U7G U8G G9A U11C C12A C13U,1.41
14,U7G U8G G9A U11C C12A C13A,1.39
15,U7G U8G G9A U11C C12A C13G,1.15
16,U7G U8G G9C U11G C12U C13U,1.26
17,U7G U8G G9C U11G C12U C13G,1.05
18,U7G U8G G9C U11G C12U C13A,1.3
19,U7G U8G G9C U10G U11C C12A,1.25
20,U7G U8G G9C U10G U11C C12U,1.04
21,U7G U8G G9C U10G U11C C12G,1.18
22,U7G U8G G9C U10G U11C C12G C13A,1.19
23,U7G U8G G9C U10G U11C C12G C13U,1.16
24,U7G U8G G9C U10G U11C C12G C13G,1.05

row,Variant,aptazyme ON/OFF ratio
1,U7G U8G G9C U10C U11G C12G C13U,1.07
2,U7G U8G G9C U10C U11G C12G C13A,1.19
3,U7G U8G G9C U10C U11G C12G C13G,1.17
4,U7G U8G G9A U11A C13A,1.35
5,U7G U8G G9A U11A C13G,1.06
6,U7G U8G G9A U11A C13U,1.11
7,U7G U8G G9C C12G,1.47
8,U7G U8G G9C C12U,1.94
9,U7G U8G G9C C12A,1.22
10,U7G U8G G9C U10A U11C C13G,1.05
11,U7G U8G G9C U10A U11C C13U,1.07
12,U7G U8G G9C U10A U11C C13A,1.07
13,U7G U8G G9C U10A U11A C12U C13G,1.03
14,U7G U8G G9C U10A U11A C12U C13A,1.08
15,U7G U8G G9C U10A U11A C12U C13U,1.02
16,U7G U8G G9A U11G C12U C13A,1.23
17,U7G U8G G9A U11G C12U C13U,1.4
18,U7G U8G G9A U11G C12U C13G,1.25
19,U7G U8G G9C U10A C12U C13G,1.03
20,U7G U8G G9C U10A C12U C13A,1.01
21,U7G U8G G9C U10A C12U C13U,1.04
22,U7G U8G G9C U10G U11G C12U,1.19
23,U7G U8G G9C U10G U11G C12G,1.15
24,U7G U8G G9C U10G U11G C12A,1.11

row,Variant,aptazyme ON/OFF ratio
1,U7G U8G G9U U10A U11A C12A,1.14
2,U7G U8G G9U U10A U11A C12G,1.19
3,U7G U8G G9C U10A C12A C13G,1.04
4,U7G U8G G9C U10A C12A C13U,1.04
5,U7G U8G G9C U10A C12A C13A,1.03
6,U7G U8G G9U U10A C13G,1.1
7,U7G U8G G9U U10A C13U,1.31
8,U7G U8G G9U U10A C13A,1.13
9,U7G U8G G9U U10A U11A C12A C13G,1.13
10,U7G U8G G9U U10A U11A C12A C13U,1.29
11,U7G U8G G9U U10A U11A C12A C13A,1.02
12,U7G U8G G9U C12G,1.18
13,U7G U8G G9U C12A,1.56
14,U7G U8G G9U C12U,1.66
15,U7G U8G G9C U10G U11G C12U C13A,1.14
16,U7G U8G G9C U10G U11G C12U C13U,1.17
17,U7G U8G G9C U10G U11G C12U C13G,1.05
18,U7G U8G G9C U10C C13A,1.44
19,U7G U8G G9C U10C C13G,1.15
20,U7G U8G G9C U10C C13U,1.59
21,U7G U8G G9C U11A C13A,1.15
22,U7G U8G G9C U11A C13U,1.36
23,U7G U8G G9C U11A C13G,1.04
24,U7G U8G G9U U10A U11A,2.87

row,Variant,aptazyme ON/OFF ratio
1,U7G U8G G9C U10C C12U C13A,1.29
2,U7G U8G G9C U10C C12U C13U,1.08
3,U7G U8G G9C U10C C12U C13G,1.36
4,U7G U8G G9U C12A C13G,1.1
5,U7G U8G G9U C12A C13U,1.06
6,U7G U8G G9U C12A C13A,1.17
7,U7G U8G G9C U10G C12A C13U,1.14
8,U7G U8G G9C U10G C12A C13G,1.06
9,U7G U8G G9C U10G C12A C13A,1.07
10,U7G U8G G9C U10C C12A C13U,1.25
11,U7G U8G G9C U10C C12A C13A,1.29
12,U7G U8G G9C U10C C12A C13G,1.27
13,U7G U8G G9C U10C U11A C12U,1.3
14,U7G U8G G9C U10C U11A C12A,1.3
15,U7G U8G G9C U10C U11A C12G,1.32
16,U7G U8G G9C U10C U11A C13G,1.17
17,U7G U8G G9C U10C U11A C13A,1.21
18,U7G U8G G9C U10C U11A C13U,1.41
19,U7G U8G G9C U10A U11C C12U C13A,1.06
20,U7G U8G G9C U10A U11C C12U C13U,1.04
21,U7G U8G G9C U10A U11C C12U C13G,1.19
22,U7G U8G G9C U10G U11C C12A C13G,1.05
23,U7G U8G G9C U10G U11C C12A C13A,1.1
24,U7G U8G G9C U10G U11C C12A C13U,1.12

row,Variant,aptazyme ON/OFF ratio
1,U7G U8G G9C U10A U11G,1.11
2,U7G U8G G9C U10A U11C,1.04
3,U7G U8G G9C U10A U11A,1.67
4,U7G U8G G9C U11A C12A,1.31
5,U7G U8G G9C U11A C12U,1.53
6,U7G U8G G9C U11A C12G,1.17
7,U7G U8G G9C U10A U11A C12G C13G,1.05
8,U7G U8G G9C U10A U11A C12G C13U,1.02
9,U7G U8G G9C U10A U11A C12G C13A,1.08
10,U7G U8G G9C U10C U11C C12A C13G,1.14
11,U7G U8G G9C U10C U11C C12A C13U,1.1
12,U7G U8G G9C U10C U11C C12A C13A,1.05
13,U7G U8G G9C U10A U11G C12A,1.05
14,U7G U8G G9C U10A U11G C12G,1.08
15,U7G U8G G9C U10A U11G C12U,1.12
16,U7G U8G G9C U11C C12G,3
17,U7G U8G G9C U11C C12U,2.49
18,U7G U8G G9C U11C C12A,5.2
19,U7G U8G G9C U11C C13U,1.33
20,U7G U8G G9C U11C C13A,1.4
21,U7G U8G G9C U11C C13G,1.4
22,U7G U8G G9A U11G C12G C13U,1.23
23,U7G U8G G9A U11G C12G C13G,1.12
24,U7G U8G G9A U11G C12G C13A,1.12

row,Variant,aptazyme ON/OFF ratio
1,U7G U8G G9C U10C U11A C12G C13U,1.24
2,U7G U8G G9C U10C U11A C12G C13A,1.28
3,U7G U8G G9C U10C U11A C12G C13G,1.24
4,U7G U8G G9C U10G C12G C13A,1.11
5,U7G U8G G9C U10G C12G C13G,1.12
6,U7G U8G G9C U10G C12G C13U,1.2
7,U7G U8G G9C U10A C13U,1.03
8,U7G U8G G9C U10A C13G,1.01
9,U7G U8G G9C U10A C13A,1.05
10,U7G U8G G9C U11C C12A C13G,1.13
11,U7G U8G G9C U11C C12A C13U,4.45
12,U7G U8G G9C U11C C12A C13A,1.37
13,U7G U8G G9C U10C C12G C13A,1.22
14,U7G U8G G9C U10C C12G C13G,1.09
15,U7G U8G G9C U10C C12G C13U,1.27
16,U7G U8G G9A U11A C12U C13A,1.15
17,U7G U8G G9A U11A C12U C13G,1.12
18,U7G U8G G9A U11A C12U C13U,1.22
19,U7G U8G G9U C12U C13U,1.26
20,U7G U8G G9U C12U C13G,1.14
21,U7G U8G G9U C12U C13A,1.23
22,U7G U8G G9U C13A,1.44
23,U7G U8G G9U C13U,1.43
24,U7G U8G G9U C13G,1.26

row,Variant,aptazyme ON/OFF ratio
1,U7G U8G G9U U10A C12A,1.28
2,U7G U8G G9U U10A C12G,1.21
3,U7G U8G G9U U10A C12U,1.29
4,U7G U8G G9C U10G U11C C13U,1.05
5,U7G U8G G9C U10G U11C C13A,1.09
6,U7G U8G G9C U10G U11C C13G,1.08
7,U7G U8G G9U U10A C12U C13A,1.11
8,U7G U8G G9U U10A C12U C13G,1.09
9,U7G U8G G9U U10A C12U C13U,1.06
10,U7G U8G G9A U11C C12U,1.65
11,U7G U8G G9A U11C C12A,1.5
12,U7G U8G G9A U11C C12G,1.33
13,U7G U8G G9C C12U C13U,1.12
14,U7G U8G G9C C12U C13G,1.22
15,U7G U8G G9C C12U C13A,1.11
16,U7G U8G G9C U10A U11C C12G C13G,1.05
17,U7G U8G G9C U10A U11C C12G C13U,1.06
18,U7G U8G G9C U10A U11C C12G C13A,1.06
19,U7G U8G G9U U10A U11A C12G C13A,1.2
20,U7G U8G G9C U10G U11G C12G C13U,1.1
21,U7G U8G G9C U10G U11G C12G C13G,1.17
22,U7G U8G G9C U10G U11G C12G C13A,1.06
23,U7G U8G G9A U11G,1.91
